Results from article PMC11735809, “Structural basis of Spliced Leader RNA recognition by the Trypanosoma brucei cap-binding complex” (Nature Communications, 2025).
One block for each compound: values may come before it.

Tests used:
[1] = molecular target: T1, TbCBC-tetramer (TbCBP20-TbCBP110-TbCBP30-TbCBP66) (Trypanosoma brucei, UniProt Q585L4); assay: competition pull-down on immobilised γ-aminophenyl-m7GTP resin, SDS-PAGE; format: binding; settings: pH 7.5, 200 mM NaCl, 5 mM MgCl2, 4 °C; competitive at the cap site
T1 construct: gene Tb06.28P18.1190; full-length subunits co-expressed in Hi5 insect cells (biGBac), HisTrap and heparin purified, tetramer 230 kDa
T1 sequence (Q585L4 1-187): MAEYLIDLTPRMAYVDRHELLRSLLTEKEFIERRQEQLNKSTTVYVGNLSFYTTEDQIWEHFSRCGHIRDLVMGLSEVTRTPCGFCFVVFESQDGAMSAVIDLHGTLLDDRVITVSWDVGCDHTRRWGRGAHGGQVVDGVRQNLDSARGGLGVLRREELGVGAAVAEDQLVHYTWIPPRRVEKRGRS
T1 sequence (Q38BU6 1-1004 partner): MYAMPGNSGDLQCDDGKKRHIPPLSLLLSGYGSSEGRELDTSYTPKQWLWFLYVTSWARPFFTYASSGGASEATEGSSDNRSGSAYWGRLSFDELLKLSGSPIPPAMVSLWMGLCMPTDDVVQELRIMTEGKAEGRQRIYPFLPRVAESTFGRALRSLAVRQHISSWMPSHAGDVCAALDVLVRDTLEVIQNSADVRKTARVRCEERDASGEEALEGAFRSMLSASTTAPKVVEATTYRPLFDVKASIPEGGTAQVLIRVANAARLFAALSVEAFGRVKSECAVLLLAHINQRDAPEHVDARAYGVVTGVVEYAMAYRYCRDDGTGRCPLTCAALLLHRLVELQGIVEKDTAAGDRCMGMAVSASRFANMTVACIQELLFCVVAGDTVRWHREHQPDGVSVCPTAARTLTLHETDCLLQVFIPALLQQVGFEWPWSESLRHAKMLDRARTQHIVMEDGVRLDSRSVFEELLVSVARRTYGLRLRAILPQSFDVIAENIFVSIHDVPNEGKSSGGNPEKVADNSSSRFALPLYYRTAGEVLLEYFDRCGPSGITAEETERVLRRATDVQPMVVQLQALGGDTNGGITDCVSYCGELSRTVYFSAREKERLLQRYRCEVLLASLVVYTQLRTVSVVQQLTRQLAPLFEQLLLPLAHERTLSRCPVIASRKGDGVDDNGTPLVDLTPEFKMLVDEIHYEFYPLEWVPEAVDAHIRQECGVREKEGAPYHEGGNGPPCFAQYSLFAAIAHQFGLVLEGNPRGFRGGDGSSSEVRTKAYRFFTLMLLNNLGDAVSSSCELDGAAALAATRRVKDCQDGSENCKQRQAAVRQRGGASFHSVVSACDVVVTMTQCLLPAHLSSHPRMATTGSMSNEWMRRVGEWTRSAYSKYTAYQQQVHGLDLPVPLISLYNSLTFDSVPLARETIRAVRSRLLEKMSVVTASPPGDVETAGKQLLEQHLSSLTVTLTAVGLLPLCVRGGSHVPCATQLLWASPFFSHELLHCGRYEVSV
T1 sequence (Q387Z0 1-270 partner): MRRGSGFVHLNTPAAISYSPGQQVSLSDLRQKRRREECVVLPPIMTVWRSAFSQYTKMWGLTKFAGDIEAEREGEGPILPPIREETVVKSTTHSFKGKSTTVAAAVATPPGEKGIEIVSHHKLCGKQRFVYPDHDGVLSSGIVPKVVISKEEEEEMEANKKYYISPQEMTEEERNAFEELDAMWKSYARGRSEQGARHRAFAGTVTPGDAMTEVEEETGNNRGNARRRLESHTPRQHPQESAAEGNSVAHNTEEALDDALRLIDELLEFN

[2] = molecular target: T1, TbCBC-tetramer (TbCBP20-TbCBP110-TbCBP30-TbCBP66); assay: cryo-EM structure, […] Å; format: binding; settings: 2-fold excess of ligand; m7GMP part resolved in the TbCBP20 cap pocket
[3] = tested on: TbCBP66* R348E (Trypanosoma brucei); assay: fluorescence polarization; settings: EMSA: 20 mM HEPES pH 7.5, 50 mM NaCl, 5 mM MgCl2, Tween (0.05% in RNA buffer), RNA stock 50 nM mixed 1:1, 30 min on ice, 6% native PAGE 4 C; FP: same buffer, 0.
[4] = tested on: TbCBP66* (Trypanosoma brucei); assay: EMSA; settings: EMSA: 20 mM HEPES pH 7.5, 50 mM NaCl, 5 mM MgCl2, Tween (0.05% in RNA buffer), RNA stock 50 nM mixed 1:1, 30 min on ice, 6% native PAGE 4 C; FP: same buffer, 0.
[5] = molecular target: TAMRA-labeled TbCBP30 peptide comprising residues R34-G60 (Trypanosoma brucei); assay: MST; 50 nM N-terminally TAMRA-labeled peptide mixed 1:1 with a serial dilution of TbCBC-dimer; 20 mM HEPES, 250 mM NaCl, 5 mM MgCl, 0.1 % Tween in the peptide buffer; 30 min on ice; Monolith NT.115; binding quantified from the ligand-dependent increase in the initial fluorescence; n = 3

Compound: C[n+]1cn([C@@H]2O[C@H](COP(=O)(O)OP(=O)(O)OP(=O)(O)O)[C@@H](O)[C@H]2O)c2nc(N)[nH]c(=O)c21 [m^7GTP]
competition pull-down on immobilised γ-aminophenyl-m7GTP resin, SDS-PAGE [1]: m^7GTP competed efficiently with cap4-SL RNA binding to TbCBC

Compound: C[n+]1cn([C@@H]2O[C@H](COP(=O)(O)OP(=O)(O)OP(=O)(O)OC[C@H]3O[C@@H](n4cnc5c(N)ncnc54)[C@H](O)[C@@H]3O)[C@@H](O)[C@H]2O)c2nc(N)[nH]c(=O)c21 [m^7GpppA]
cryo-EM structure, 2.4 Å [2]: The m^7GMP portion of the cap-analog is coordinated by TbCBP20

Compound: AACUAACGCUAUUAUUAGAACAGUUUCUGUACUAUAUUG [OH-SLe 3'-6FAM (39 nt SL RNA exon, FP)]
Kd [3]: 9810 nM

Compound: AUUAGAACAGUUUCUGUACUAUAUUG [SL-hairpin_loop (A14-G39)]
Kd [4]: 390 nM

Kd [5]: 980 nM
Compound: TbCBC-dimer (TbCBP20-TbCBP110 dimer) (complex)
